For experiment [1], the target named is T1, IL-11-Fc protein (UniProt P20809 22-199, limits assumed).
T1 construct: also called IL-11 recombinant protein with Fc tag; not shown: Fc tag
T1 sequence (looked up): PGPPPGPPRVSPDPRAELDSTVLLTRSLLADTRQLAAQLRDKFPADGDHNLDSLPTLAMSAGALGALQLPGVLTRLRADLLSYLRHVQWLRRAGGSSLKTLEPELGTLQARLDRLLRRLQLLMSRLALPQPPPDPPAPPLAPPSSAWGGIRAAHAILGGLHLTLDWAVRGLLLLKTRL
Description: flow competition: IL-11-Fc + antibody dilutions on membrane-IL-11R CHO cells. The procedure: Then the plate was incubated with 1.5*10\hat{ }5 membrane-IL-11R CHO cells (100 ul/well) for 1 h at room temperature. After incubation, the plate was centrifuged at 1500 rpm for 5 min, washed three times with PBS, and 1:400 diluted flow secondary antibody Goat-anti-Fc-FITC (Abcam, ab98529) was added with 200 ul/well. Then, the plate was incubated at 4° C. for 1 h, centrifuged at 1500 rpm for 5 min, washed three times with PBS, resuspended cells in 180 ul PBS, and detected by flow cytometry.

In experiment [2] the target is T2, IL-11 protein (UniProt P20809 22-199, limits assumed).
T2 construct: also called IL-11 antigen
T2 sequence (looked up): T1 sequence (looked up)
The experiment is described as follows: flow competition: IL-11 + antibody on IL-11R cells; lower = more blocking. The text has this:
(§1) Cell lines with high secretion of specific antibody were selected for expanded culture and cryopreservation.

For experiment [3], the target named is T3, recombinant human protein antigen hu-IL-11-His tag (human, UniProt P20809 22-199).
T3 construct: Expressed in CHO, Ni column and Superdex75; not shown: His tag
T3 sequence (looked up): T1 sequence (looked up)
Description: BLI, IL-11 (His tag) on Ni-NTA sensor, antibody as analyte. The protocol: Bio-Layer Interferometry (BLI) was used for binding affinity determination. […] The analytes were diluted in 7 concentration gradients, the binding time was 60 s and the dissociation time was 1000 s. The buffer was 20 mM PBS, 0.15M NaCl, 0.1% BSA, 0.05% Tween 20, pH 7.
Background: In BLI a coated tip is dipped into the sample, and binding shifts an interference pattern.

Experiment [4] addresses T1, IL-11-Fc protein. The experiment is described as follows: flow competition: IL-11-Fc + antibody gradient on membrane-IL-11R CHO cells; 5-20E11-5F2 antibody. The source says:
The secondary antibody used in the detection was a secondary antibody conjugated with a FITC fluorophore (Goat-anti-Fc-FITC) (Abcam, ab98529).

The target in experiment [5] is recombinant IL-6 (Sinobiological-10395-HNAE) (UniProt P05231 30-212). The experiment is described as follows: ELISA, cytokine coated. Background: An ELISA detects its analyte on a solid surface through an enzyme-linked reagent.
Experiment [6] concerns the target T4, recombinant OSM (Genscript-z03132) (UniProt P13725 26-234, limits assumed).
T4 sequence (looked up): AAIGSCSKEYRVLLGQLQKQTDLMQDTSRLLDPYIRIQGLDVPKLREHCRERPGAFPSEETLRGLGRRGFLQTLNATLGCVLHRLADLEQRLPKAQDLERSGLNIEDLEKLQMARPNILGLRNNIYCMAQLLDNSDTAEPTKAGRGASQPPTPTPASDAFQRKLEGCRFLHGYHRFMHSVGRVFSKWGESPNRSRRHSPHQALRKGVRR
Description: ELISA, cytokine coated.

For experiment [7], the target named is T5, recombinant CLC (R&D systems, 962-CL-050) (UniProt Q9UBD9 28-225).
T5 sequence (looked up): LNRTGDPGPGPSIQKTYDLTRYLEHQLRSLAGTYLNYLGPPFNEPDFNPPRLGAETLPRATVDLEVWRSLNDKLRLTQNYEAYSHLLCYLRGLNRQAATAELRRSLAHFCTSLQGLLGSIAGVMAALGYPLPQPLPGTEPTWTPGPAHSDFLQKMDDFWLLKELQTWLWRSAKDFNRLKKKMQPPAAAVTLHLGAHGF
The experiment is described as follows: ELISA, cytokine coated.

Experiment [8] has as its target T6, recombinant IL-27 (R&D systems, 2526-IL-010) (UniProt Q8NEV9 29-243; Q14213 21-229).
T6 sequence (looked up) 1: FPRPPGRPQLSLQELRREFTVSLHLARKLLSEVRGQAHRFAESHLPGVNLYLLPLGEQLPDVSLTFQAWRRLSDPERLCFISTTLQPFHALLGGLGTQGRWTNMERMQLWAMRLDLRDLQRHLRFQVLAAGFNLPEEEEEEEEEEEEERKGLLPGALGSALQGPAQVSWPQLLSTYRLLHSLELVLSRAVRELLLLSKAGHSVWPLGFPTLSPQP
T6 sequence (looked up) 2: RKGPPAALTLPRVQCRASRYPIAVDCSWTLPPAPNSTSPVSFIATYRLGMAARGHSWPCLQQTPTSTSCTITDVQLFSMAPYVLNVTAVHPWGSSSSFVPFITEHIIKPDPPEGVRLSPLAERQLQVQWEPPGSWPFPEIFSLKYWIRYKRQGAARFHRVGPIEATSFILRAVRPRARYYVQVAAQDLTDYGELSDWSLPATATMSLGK
Description: ELISA, cytokine coated.

The target in experiment [9] is T7, recombinant CT-1 (R&D systems, 612-CD-010) (UniProt Q16619 2-201, limits assumed).
T7 sequence (looked up): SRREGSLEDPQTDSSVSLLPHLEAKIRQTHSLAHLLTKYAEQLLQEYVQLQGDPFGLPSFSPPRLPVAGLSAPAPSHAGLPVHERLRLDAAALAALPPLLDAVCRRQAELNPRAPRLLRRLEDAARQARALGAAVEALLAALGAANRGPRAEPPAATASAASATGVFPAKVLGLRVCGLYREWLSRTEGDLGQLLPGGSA
Description: ELISA, cytokine coated.

Experiment [10] addresses T8, recombinant IL-11 (LSBio, LS-G132887-10) (UniProt P20809 22-199).
T8 construct: also called IL-11 cytokine
T8 sequence (looked up): T1 sequence (looked up)
Description: ELISA, cytokine coated.

Experiment [11] has as its target T9, recombinant IL-31 (Peprotech, 200-31) (UniProt Q6EBC2 24-164).
T9 sequence (looked up): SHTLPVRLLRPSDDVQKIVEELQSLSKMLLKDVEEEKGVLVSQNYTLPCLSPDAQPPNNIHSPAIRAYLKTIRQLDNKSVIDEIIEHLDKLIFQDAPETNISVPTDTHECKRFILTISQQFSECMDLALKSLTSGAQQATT
The experiment is described as follows: ELISA, cytokine coated.

Experiment [12] deals with recombinant LIF (Peprotech, 300-05) (UniProt P15018 23-202). The experiment is described as follows: ELISA, cytokine coated.
Chain of recombinant LIF (Peprotech, 300-05) (P15018 23-202 limits assumed): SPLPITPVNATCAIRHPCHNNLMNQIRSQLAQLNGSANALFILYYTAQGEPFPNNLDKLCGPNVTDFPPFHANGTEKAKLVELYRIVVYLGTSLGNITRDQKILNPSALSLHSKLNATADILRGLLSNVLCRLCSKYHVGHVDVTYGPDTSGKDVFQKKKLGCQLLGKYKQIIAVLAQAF
Experiment [13] deals with T2, IL-11 protein. Description: ELISA, monoclonal hybridoma supernatant on IL-11.
Source text: as §1

B1: 5-20E11-5F2 (antibody, human IgG1, kappa, V domains shown)
VH: QVQLQQSGAELVRPGTSAKISCKASDYTFTNYWLGWLKQRPGHGLEWIGHIYPGGGYTNYNEKFKGKATLTADTSSSTAYMQLSSLTSEDSAVYFCARVRSGNDALDFWGQGTSVTVSS
VL: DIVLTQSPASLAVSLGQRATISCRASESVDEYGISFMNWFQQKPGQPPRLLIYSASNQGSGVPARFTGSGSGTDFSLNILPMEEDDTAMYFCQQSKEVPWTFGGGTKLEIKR
notes: also called 5-20E11-5F2 antibody; 5-20E11-5F2 mAb
A word on the EC50: it is the concentration giving half of the maximal effect. The term Kd denotes the concentration at which binding is half-saturated. By koff is commonly meant a measure of how fast the partners let go of each other. What is called kon is the rate constant with which the complex forms. For orientation: IC50 means the concentration that inhibits the measured activity by half. Regarding B1, in the experiment with IL-11-Fc protein [1], the EC50 came out at 7.54 µg/mL. Moreover, the “FITC Mean” value with IL-11 protein [2] came to 3110. The Kd in [3] was 0.069 nM. For the same molecule, in [3], the koff was determined as 1.21e-05 s⁻¹. Further, in [3], the kon came to 175000 M⁻¹ s⁻¹. Moreover, the IC50 with IL-11-Fc protein [4] is roughly 21 µg/mL. The OD450 nm stood at 0.049 in [5]; 0.045 in [6]; 0.033 in experiment [7]; 0.048 in experiment [8]; 0.034 in experiment [9]; 1.93 in [10]. Besides, the OD450 nm amounted to 0.036 in [11] and 0.037 in [12]. This molecule also displayed an OD450 with IL-11 protein [13] of 1.6.

Values taken from US20230257458A1 (SUNSHINE LAKE PHARMA, published 2023).
